According to the supplement of paper PMC11246515:
± gives the standard deviation of the averaged measurements.

Assay: total protein half-life in vivo (active degradation + dilution); higher = more stable protein
[1] = E. coli NCM3722 delta-clpP delta-lon delta-hslV, growth: N-lim chemostat, doubling time 6 h
[2] = E. coli NCM3722 delta-hslV, growth: N-lim chemostat, doubling time 6 h
[3] = E. coli NCM3722 delta-lon, growth: N-lim chemostat, doubling time 6 h
[4] = E. coli NCM3722 delta-smpB, growth: N-lim chemostat, doubling time 6 h
[5] = wild type E. coli NCM3722, growth: C-lim chemostat, doubling time 3 h
[6] = wild type E. coli NCM3722, growth: C-lim chemostat, doubling time 6 h
[7] = wild type E. coli NCM3722, growth: N-lim chemostat, doubling time 6 h
[8] = wild type E. coli NCM3722, growth: N-lim chemostat, doubling time 12 h
[9] = wild type E. coli NCM3722, growth: P-lim chemostat, doubling time 6 h
[10] = wild type E. coli NCM3722, growth: P-lim chemostat, doubling time 12 h
[11] = wild type E. coli NCM3722, growth: C-lim chemostat, doubling time 12 h

MKKLAIAGALLLLAGCAEVENYNNVVKTPAPDWLAGYWQTKGPQRALVSPEAIGSLIVTKEGDTLDCRQWQRVIAVPGKLTLMSDDLTNVTVKRELYEVERDGNTIEYDGMTMERVDRPTAECAAALDKAPLPTPLP
total protein half-life in vivo [1]: 7.04 ± 1.3 h | total protein half-life in vivo (E. coli NCM3722 delta-clpP, growth: N-lim chemostat, doubling time 6 h): 6.08 ± 0.62 h | total protein half-life in vivo [2]: 6.36 ± 0.14 h | total protein half-life in vivo [3]: 7.26 ± 0.97 h | total protein half-life in vivo [4]: 6.12 ± 0.1 h | total protein half-life in vivo [5]: 3 ± 0.23 h | total protein half-life in vivo [6]: 6.16 ± 0.61 h | total protein half-life in vivo [7]: 4.4 ± 3.5 h | total protein half-life in vivo [8]: 12.5 ± 0.86 h | total protein half-life in vivo [9]: 6.19 ± 0.15 h | total protein half-life in vivo [10]: 12.4 ± 0.42 h

MKKLFIQFYLLLFVCFLVMSLLVGLVYKFTAERAGKQSLDDLMNSSLYLMRSELREIPPHDWGKTLKEMDLNLSFDLRVEPLSKYHLDDISMHRLRGGEIVALDDQYTFLQRIPRSHYVLAVGPVPYLYYLHQMRLLDIALIAFIAISLAFPVFIWMRPHWQDMLKLEAAAQRFGDGHLNERIHFDEGSSFERLGVAFNQMADNINALIASKKQLIDGIAHELRTPLVRLRYRLEMSDNLSAAESQALNRDISQLEALIEELLTYARLDRPQNELHLSEPDLPLWLSTHLADIQAVTPDKTVRIKTLVQGHYAALDMRLMERVLDNLLNNALRYCHSTVETSLLLSGNRATLIVEDDGPGIAPENREHIFEPFVRLDPSRDRSTGGCGLGLAIVHSIALAMGGTVNCDTSELGGARFSFSWPLWHNIPQFTSA
total protein half-life in vivo [2]: 6.14 ± 0.51 h | total protein half-life in vivo [4]: 6.03 ± 0.18 h | total protein half-life in vivo [5]: 2.755 ± 0.017 h | total protein half-life in vivo [6]: 6.26 h | total protein half-life in vivo [11]: 12.5 ± 4.9 h | total protein half-life in vivo [7]: 6.3 h | total protein half-life in vivo [8]: 10.1 ± 2.2 h | total protein half-life in vivo [9]: 5.97 ± 0.2 h | total protein half-life in vivo [10]: 11.4 ± 0.61 h

MKKLILIAIMASGLVACAQSTAPQEDSRLKEAYSACINTAQGSPEKIEACQSVLNVLKKEKQHQQFADQESVRVLDYQQCLRATQTGNDQAVKADCDKVWQEIRSNNK
total protein half-life in vivo [4]: 5.85 h | total protein half-life in vivo [11]: 9.68 ± 2.6 h | total protein half-life in vivo [8]: > 16 h

MKKLLPILIGLSLSGFSSLSQAENLMQVYQQARLSNPELRKSAADRDAAFEKINEARSPLLPQLGLGADYTYSNGYRDANGINSNATSASLQLTQSIFDMSKWRALTLQEKAAGIQDVTYQTDQQTLILNTATAYFNVLNAIDVLSYTQAQKEAIYRQLDQTTQRFNVGLVAITDVQNARAQYDTVLANEVTARNNLDNAVEQLRQITGNYYPELAALNVENFKTDKPQPVNALLKEAEKRNLSLLQARLSQDLAREQIRQAQDGHLPTLDLTASTGISDTSYSGSKTRGAAGTQYDDSNMGQNKVGLSFSLPIYQGGMVNSQVKQAQYNFVGASEQLESAHRSVVQTVRSSFNNINASISSINAYKQAVVSAQSSLDAMEAGYSVGTRTIVDVLDATTTLYNAKQELANARYNYLINQLNIKSALGTLNEQDLLALNNALSKPVSTNPENVAPQTPEQNAIADGYAPDSPAPVVQQTSARTTTSNGHNPFRN
total protein half-life in vivo [1]: 6.4 ± 0.68 h | total protein half-life in vivo [2]: 7.27 ± 0.62 h | total protein half-life in vivo [3]: 6.96 ± 0.25 h | total protein half-life in vivo [4]: 6.09 ± 0.28 h | total protein half-life in vivo [5]: 3.15 ± 0.091 h | total protein half-life in vivo [6]: 6.46 ± 0.065 h | total protein half-life in vivo [11]: 12.5 ± 0.56 h | total protein half-life in vivo [7]: 5.95 ± 0.79 h | total protein half-life in vivo [8]: 13.3 ± 0.99 h | total protein half-life in vivo [9]: 5.09 ± 0.13 h | total protein half-life in vivo [10]: 10.7 ± 0.21 h
